Assay results reported in US20120003235A1 (published 2012).

B1: monomeric LTβR (receptor, UniProt P36941 28-227, looked up)
chain: SQPQAVPPYASENQTCRDQEKEYYEPQHRICCSRCPPGTYVSAKCSRIRDTVCATCAENSYNEHWNYLTICQLCRPCDPVMGLEEIAPCTSKRKTQCRCQPGMFCAAWALECTHCELLSDCPPGTEAELKDEVGKGNNHCVPCKAGHFQNTSSPSARCQPHTRCENQGLVEAAPGTAQSDTTCKNPLEPLPPEMSGTMLM
notes: Injected at 20 µM in Biacore; also called LTbR
B2: mAb LT102 (P1G8.2) (antibody, V domains shown)
VH: EVKLVESGGGLVKPGGSLKLSCAVSGFTFSDYYMYWIRQTPEKRLEWVATIGDGTSYTHYPDSVQGRFTISRDYATNNLYLQMTSLRSEDTALYYCARDLGTGPFAYWGQGTLVTVSA
VL: DVLMTQTPRSLPVSLGDQASISCRSSQNIVHSNGNTYLEWYLQKPGQSPKLLIYKVSNRFSGVPDRFSGSGSGTDFTLKISRVEAEDLGVYYCFQGSHFPWTFGGGTKLEIK
notes: only mature variable domains printed; also called LT012
B3: mAb LT105 (P2E9.7) (antibody, V domains shown)
VH: DVQLQESGPGLVKPSQSLSLTCSVTGYSITSGYYWNWIRQFPGNKLEGMGYISYDGSNNYNPSLKNRISITRDSSKNQFFLKLNSVTAEDSGTYYCARDAYSYGMDYWGQGTSVTVSS
VL: DIVLTQSPASLAVSLGQRATISCRASESVDNYGISFMHWYQQKPGQPPKLLIYRASNLESGIPARFSGSGSRTDFTLTINPVETDDVATFYCQQSNKDPYTFGGGTKLEIK
notes: only mature variable domains printed
B4: LT105 Fab fragment (Fab, V domains shown)
VH: B3 VH
VL: B3 VL
B5: mAb 9B4 (antibody, V domains shown)
VH: QVTLKESGPGILQPSQTLSLTCSFSGFSLSTSGMGVSWIRQPSGKGLEWLAHIYWDDDKRYNPSLRSRLTISKDTSRNQVFLKITSVDTADTATYYCARREGYYGSSFDFDVWGAGTTVTVSS
VL: QIVLSQSPAILSASPGEKVTMTCRASSSVSYMIWYQQKPGSSPKPWIYATSSLASGVPTRFSGSGSGTSYSLTISRVEAADAATYYCQQWSYNPLTFGAGTKLELK
notes: Murine monoclonal antibody; only mature variable domains printed; kappa light chain; also called LT 9B4; LT9B4

Tests used:
[1] = molecular target: T1, soluble Flag-tagged LTα1β2 (UniProt P01374 35-205, limits assumed); assay: SPR (Biacore 3000), Flag-LTα1β2 captured on anti-Flag M2 chip; LTβR binding site 1
T1 construct: Soluble, Flag-tagged heterotrimer captured on anti-Flag M2 in Biacore; also called Ligand
T1 sequence 1: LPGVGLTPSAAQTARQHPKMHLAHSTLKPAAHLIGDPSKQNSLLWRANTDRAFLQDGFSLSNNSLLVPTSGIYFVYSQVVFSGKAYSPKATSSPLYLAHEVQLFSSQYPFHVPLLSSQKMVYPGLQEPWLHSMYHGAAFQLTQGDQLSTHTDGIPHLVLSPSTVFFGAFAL
T1 sequence 2: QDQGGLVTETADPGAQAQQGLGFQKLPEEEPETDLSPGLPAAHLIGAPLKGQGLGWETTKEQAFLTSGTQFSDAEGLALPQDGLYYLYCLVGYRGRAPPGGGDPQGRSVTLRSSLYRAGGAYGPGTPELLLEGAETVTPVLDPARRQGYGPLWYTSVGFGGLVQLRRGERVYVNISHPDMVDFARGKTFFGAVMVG

[2] = molecular target: T1, soluble Flag-tagged LTα1β2; assay: SPR (Biacore 3000), Flag-LTα1β2 captured on anti-Flag M2 chip; LTβR binding site 2
[3] = molecular target: T1, soluble Flag-tagged LTα1β2; assay: SPR (Biacore 3000), Flag-LTα1β2 captured on anti-Flag M2 chip; apparent affinity of intact antibody
[4] = molecular target: T1, soluble Flag-tagged LTα1β2; assay: SPR (Biacore 3000), Flag-LTα1β2 captured on anti-Flag M2 chip; Fab fragment

| Binder | Kd [3] [nM] | other results |
| --- | --- | --- |
| B1 | – | Kd [1]: ~50 nM; Kd [2]: ~1500 nM |
| B2 | ≤ 0.3 | – |
| B3 | ≤ 0.3 | – |
| B4 | – | Kd [4]: ≥ 2 nM |
| B5 | ≤ 0.3 | – |
